Test results reported in PMC6804660, “Melatonin enhances salt tolerance by promoting MYB108A-mediated ethylene biosynthesis in grapevines”.

How the values were obtained:
MYB108A (VviMYB108A) [1] = molecular target: T1, MYB108A (VviMYB108A) (UniProt C3W4Q3 1-306); assay: EMSA; EMSA per Thermo Fisher EMSA Kit manual; buffer, salt, pH and temperature not stated; conditions: protein: recombinant; tags: His; label: biotin
T1 sequence: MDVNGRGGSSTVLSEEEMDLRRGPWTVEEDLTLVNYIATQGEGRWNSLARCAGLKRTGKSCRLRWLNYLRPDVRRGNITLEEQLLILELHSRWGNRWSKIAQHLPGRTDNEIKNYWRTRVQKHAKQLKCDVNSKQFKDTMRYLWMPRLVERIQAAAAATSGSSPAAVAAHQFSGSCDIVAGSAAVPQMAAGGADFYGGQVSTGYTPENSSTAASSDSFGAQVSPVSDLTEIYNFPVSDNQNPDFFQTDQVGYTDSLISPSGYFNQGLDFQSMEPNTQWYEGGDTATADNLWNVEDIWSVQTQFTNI

MYB108A (VviMYB108A) [2] = molecular target: T1, MYB108A (VviMYB108A); assay: competition; increasing unlabeled competitor vs biotin MBS probe (EMSA); EMSA per Thermo Fisher EMSA Kit manual; buffer, salt, pH and temperature not stated; conditions: protein: recombinant; tags: His
MYB108A (VviMYB108A) [3] = molecular target: T1, MYB108A (VviMYB108A); assay: competition; unlabeled mutant competitor vs biotin MBS probe (EMSA); EMSA per Thermo Fisher EMSA Kit manual; buffer, salt, pH and temperature not stated; conditions: protein: recombinant; tags: His

B1: ACS1 promoter MBS probe (dsDNA)
DNA 1: CATGTCCCTGTGAACCTAACGTAAGGCA
DNA 2: TGCCTTACGTTAGGTTCACAGGGACATG
binding result (MYB108A (VviMYB108A) [1]): binds

B2: unlabeled MBS competitor (dsDNA)
DNA 1: CATGTCCCTGTGAACCTAACGTAAGGCA
DNA 2: TGCCTTACGTTAGGTTCACAGGGACATG
binding result (MYB108A (VviMYB108A) [2]): binds

B3: mutant MBS competitor (mMBS) (dsDNA)
DNA 1: CATGTCCCTGTGTACATATCGTAAGGCA
DNA 2: TGCCTTACGATATGTACACAGGGACATG
binding result (MYB108A (VviMYB108A) [3]): no binding
